In patent publication US20140205597A1 (published 2014):

Tests used:
[1] = biological target: T1, purified interference factor(s) from serum of Donor B; assay: Biacore, immobilized interference factor
T1 construct: text names Donors 8, 19 and 30

[2] = biological target: T2, purified interference factor(s) from serum of Donor A; assay: Biacore, immobilized interference factor
T2 construct: text names Donors 8, 19 and 30

[3] = biological target: T3, purified interference factor(s) from serum of Donor C; assay: Biacore, immobilized interference factor
T3 construct: text names Donors 8, 19 and 30

[4] = biological target: T4, monoclonal antibody 21-4-3; assay: Biacore, captured 21-4-3
T4 construct: mouse IgG1 heavy chain, kappa light chain; also called mAb21-4-3; produced by hybridoma ABH0015 (LMBP-9680-CB)
Method: Binding measurements were performed using a Biacore T100 using a CM5 T120416 sensor chip, with running buffer HBS-EP+, 25° C. […] The anti-mouse IgG used was a polyclonal rabbit anti-mouse IgG antibodies reacting with all IgG subclasses, IgA and IgM (GE Healthcare; Cat#BR-1008-38; Lot#10056316). Immobilisation of the anti-mouse IgG was performed using manual amine coupling using a 7 minute injection of EDC/NHS for activation and a 7 minute injection of 1M ethanolamine HCl pH 8.5 for deactivation (Biacore, amine coupling kit).

B1: SEQ ID NO 68 (VHH)
VHH: EVQLVESGGGLVQAGGSLRLSCAASRSIGRLDRMGWYRHRPGEPRELVATITGGSSINYGDSVKGRFTISIDNSKNTVYLQMNSLRPEDTAVYYCNFNKYVTSRDTWGQGTQVTVSS
notes: P14A, L108Q
- binding vs Reference Sequence (=100%) [1]: 115%
- binding vs Reference Sequence (=100%) [2]: 38%
- binding vs Reference Sequence (=100%) [3]: 49%
- binding vs Reference Sequence (=100%) [4]: 26%

B2: SEQ ID NO 66 (VHH)
VHH: EVQLVESGGGSVQPGGSLRLSCAASRSIGRLDRMGWYRHRPGEPRELVATITGGSSINYGDSVKGRFTISIDNSKNTVYLQMNSLRPEDTAVYYCNFNKYVTSRDTWGQGTLVTVSS
notes: L11S
- binding vs Reference Sequence (=100%) [1]: 29%
- binding vs Reference Sequence (=100%) [2]: 81%
- binding vs Reference Sequence (=100%) [3]: 84%
- binding vs Reference Sequence (=100%) [4]: 48%

B3: SEQ ID NO 69 (VHH)
VHH: EVQLVESGGGLVQPGGSLRLSCAASRSIGRLDRMGWYRHRPGEPRELVATITGGSSINYGDSVKGRFTISIDNSKNTVYLQMNSLRPEDTAVYYCNFNKYVTSRDTWGQGTQVTVSS
notes: L108Q
- binding vs Reference Sequence (=100%) [1]: 120%
- binding vs Reference Sequence (=100%) [2]: 80%
- binding vs Reference Sequence (=100%) [3]: 84%
- binding vs Reference Sequence (=100%) [4]: 106%

B4: SEQ ID NO 65 (VHH)
VHH: EVQLVESGGGLVQAGGSLRLSCAASRSIGRLDRMGWYRHRPGEPRELVATITGGSSINYGDSVKGRFTISIDNSKNTVYLQMNSLRPEDTAVYYCNFNKYVTSRDTWGQGTLVTVSS
notes: P14A
- binding vs Reference Sequence (=100%) [1]: 121%
- binding vs Reference Sequence (=100%) [2]: 73%
- binding vs Reference Sequence (=100%) [3]: 64%
- binding vs Reference Sequence (=100%) [4]: 23%

B5: SEQ ID NO 82 (VHH)
VHH: EVQLVESGGGLVQPGGSLRLSCAASRSIGRLDRMGWYRHRPGEPRELVATITGGSSINYGDSVKGRFTISIDNSKNTVYLQMNSLRAEDTAVYYCNFNKYVTSRDTWGQGTLVTVSS
notes: P84A
- binding vs Reference Sequence (=100%) [1]: 80%
- binding vs Reference Sequence (=100%) [2]: 96%
- binding vs Reference Sequence (=100%) [3]: 100%
- binding vs Reference Sequence (=100%) [4]: 56%

B6: SEQ ID NO 67 (VHH)
VHH: EVQLVESGGGLVQPGGSLRLSCAASRSIGRLDRMGWYRHRPGEPRELVATITGGSSINYGDSVKGRFTISIDNSKNTVYLQMNSLKPEDTAVYYCNFNKYVTSRDTWGQGTLVTVSS
notes: R83K
- binding vs Reference Sequence (=100%) [1]: 117%
- binding vs Reference Sequence (=100%) [2]: 102%
- binding vs Reference Sequence (=100%) [3]: 96%
- binding vs Reference Sequence (=100%) [4]: 101%

B7: SEQ ID NO 78 (VHH)
VHH: EVQLVESGGGLVRPGGSLRLSCAASRSIGRLDRMGWYRHRPGEPRELVATITGGSSINYGDSVKGRFTISIDNSKNTVYLQMNSLRPEDTAVYYCNFNKYVTSRDTWGQGTLVTVSS
notes: Q13R
- binding vs Reference Sequence (=100%) [1]: 96%
- binding vs Reference Sequence (=100%) [2]: 96%
- binding vs Reference Sequence (=100%) [3]: 100%
- binding vs Reference Sequence (=100%) [4]: 1%

B8: SEQ ID NO 80 (VHH)
VHH: EVQLVESGGGLVQPGGSLRLSCAASRSIGRLDRMGWYRHRPGEPRELVATITGGSSINYGDSVKGRFTISIDNSKNTVYLQMNSLRPEDTAVYYCNFNKYVTSRDTWGQGTLVQVGG
notes: T110Q, S112G, S113G
- binding vs Reference Sequence (=100%) [1]: 5%
- binding vs Reference Sequence (=100%) [2]: 65%
- binding vs Reference Sequence (=100%) [3]: 58%
- binding vs Reference Sequence (=100%) [4]: 51%

B9: SEQ ID NO 72 (VHH)
VHH: EVQLVESGGGLVQPGGSLRLSCAASRSIGRLDRMGWYRHRPGEPRELVATITGGSSINYGDSVKGRFTISIDNSKNTVYLQMNSLRPEDTAVYYCNFNKYVTSRDTWGQGTLVTVGG
notes: S112G, S113G
- binding vs Reference Sequence (=100%) [1]: 47%
- binding vs Reference Sequence (=100%) [2]: 70%
- binding vs Reference Sequence (=100%) [3]: 56%
- binding vs Reference Sequence (=100%) [4]: 45%

B10: SEQ ID NO 70 (VHH)
VHH: EVQLVESGGGLVQPGGSLRLSCAASRSIGRLDRMGWYRHRPGEPRELVATITGGSSINYGDSVKGRFTISIDNSKNTVYLQMNSLRPEDTAVYYCNFNKYVTSRDTWGQGTLVQVSS
notes: T110Q
- binding vs Reference Sequence (=100%) [1]: 105%
- binding vs Reference Sequence (=100%) [2]: 90%
- binding vs Reference Sequence (=100%) [3]: 98%
- binding vs Reference Sequence (=100%) [4]: 106%

B11: SEQ ID NO 84 (VHH)
VHH: EVQLVESGGGLVQPGGSLRLSCAASRSIGRLDRMGWYRHRPGEPRELVATITGGSSINYGDSVKGRFTISIDNSKNTVYLQMNSLRPEDTAVYYCNFNKYVTSRDTWGQGTLVTVGS
notes: S112G
- binding vs Reference Sequence (=100%) [1]: 50%
- binding vs Reference Sequence (=100%) [2]: 84%
- binding vs Reference Sequence (=100%) [3]: 83%
- binding vs Reference Sequence (=100%) [4]: 91%
